Experimental data from US6767890.

Biological target: Galanin receptor of rat ileum (rat)
Assay: cell-based or functional assay

Agonism (contraction of rat ileum), galanin 0.1 µM: 100% | Agonism, average of two preparations, galanin 0.1 µM: 100%
Substance: Galanin (peptide)
